The values that follow come from patent publication US20160333092A1 (ORDER MADE MEDICAL RESEARCH, published 2016).

In experiment [1] the target is T1, human SLC6A6 (solute carrier family 6 (neurotransmitter transporter, taurine), member 6) (human, UniProt P31641 1-620).
T1 construct: also called native SLC6A6; SLC6A6 on the cell membrane
T1 sequence: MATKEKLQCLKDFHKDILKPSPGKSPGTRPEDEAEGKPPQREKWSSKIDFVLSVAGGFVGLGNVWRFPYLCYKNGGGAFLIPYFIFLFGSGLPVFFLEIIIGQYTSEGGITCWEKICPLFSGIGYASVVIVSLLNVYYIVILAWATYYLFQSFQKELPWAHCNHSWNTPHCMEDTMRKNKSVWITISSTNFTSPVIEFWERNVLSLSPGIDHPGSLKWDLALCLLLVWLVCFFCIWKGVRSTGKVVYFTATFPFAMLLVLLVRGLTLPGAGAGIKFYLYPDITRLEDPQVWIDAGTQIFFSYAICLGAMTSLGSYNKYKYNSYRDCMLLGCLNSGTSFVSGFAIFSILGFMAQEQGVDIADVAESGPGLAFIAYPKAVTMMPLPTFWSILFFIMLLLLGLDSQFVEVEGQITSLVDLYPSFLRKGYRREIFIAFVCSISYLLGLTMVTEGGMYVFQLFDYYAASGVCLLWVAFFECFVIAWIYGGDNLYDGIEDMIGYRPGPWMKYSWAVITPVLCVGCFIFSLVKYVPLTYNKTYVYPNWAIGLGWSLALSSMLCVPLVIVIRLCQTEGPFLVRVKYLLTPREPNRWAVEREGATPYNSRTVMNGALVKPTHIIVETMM
As to the kind of experiment: binding activity on HCT15 and HT-29 cells, antibody 10 ug/mL, anti-human IgG-HRP secondary antibody. On the procedure:
In this case, the antibody concentration was set to 10 μg/mL.

Experiment [2] deals with T2, partial protein of the extracellular region of SLC6A6 (amino acid residues 143 to 216, E. coli recombinant) (human, UniProt P31641 143-216).
T2 construct: also called SLC6A6 partial protein; recombinant protein
T2 sequence: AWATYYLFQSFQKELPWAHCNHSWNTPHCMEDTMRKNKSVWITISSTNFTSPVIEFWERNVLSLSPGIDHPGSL
The experiment in a line: ELISA on coated recombinant SLC6A6 partial protein (residues 143-216), HRP-labelled secondary antibody. On the procedure: The recombinant protein obtained in (4) above (10 μg/ml) was dispensed in 100 μL volumes into MaxiSorp 96-well plates (Nunc) and adsorbed onto the plates at room temperature for 1 hour. After adsorption, each well was washed with TBS-T (TBS-T (25 mM Tris, 150 mM NaCl, 0.05% (v/v) Tween 20, pH 7.4) and charged with skimmed milk (GIBCO), which had been diluted to 5% with TBS-T, to conduct blocking for 30 minutes at room temperature. After each well was washed three times with 200 μL of TBS-T, mouse plasma samples collected from the tail vein were each diluted 1/2000-fold with TBS-T and added to the ELISA plates in a volume of 100 μL per well, followed by reaction at room temperature for 1 hour. Each well was washed three times with 200 μL of TBS-T.
The thus obtained monoclonal antibody-producing hybridoma cells were cultured in ten 10 cm dishes to reach 90% confluency and then cultured for 10 days in a 1:1 mixture of HT medium (Invitrogen) and EX CELL Sp2/0 (Nichirei Bioscience Inc., Japan). The culture supernatants were collected and purified with a Protein G column. The Protein G column (GE Healthcare) was used in a volume of 0.5 mL relative to 100 mL of the culture supernatant. The cultured solutions were each passed at a flow rate of 1 to 3 ml/min through the Protein G column which had been equilibrated with PBS(−), followed by washing with 6 mL of washing buffer (25 mM Tris-HCl (pH 7.4), 140 mM NaCl, 10 mM KCl). Then, antibody proteins were eluted with 1 mL of elution buffer (0.1 M glycine-HCl (pH 2.5) or 0.1 M glycine-HCl (pH 3.0)) and neutralized with 0.5 M Tris-HCl (pH 7.4) to be within pH 7.0 to 7.4. The antibodies were concentrated with Amicon Ultra 30 (Millipore) and the buffer was replaced with PBS(−).

In experiment [3] the target is T1, human SLC6A6 (solute carrier family 6 …). The experiment in a line: immunocytological staining of formalin-fixed HT-29 and LoVo cells, antibody 10 ug/mL; compared with 4B9b and 5H12d. Here is the method: (§1) Moreover, as controls for comparison purposes, the anti-SLC6A6 antibodies “4B9b” and “5H12d” disclosed in WO2012/029990 were also analyzed in the same manner. Hereinafter, antibodies produced by hybridoma cells are also represented by their respective clone numbers.
(§2) HT-29 and LoVo cells were cultured to reach 80% confluency and then seeded onto cover slips coated with Cellmatrix Type I-A (Nitta Gelatin Inc., Japan). After culture for 2 days, the cells were fixed with 10% neutral buffered formalin (WAKO). After being treated with 0.3% (v/v) aqueous hydrogen peroxide for 20 minutes, the cover slips were washed three times with TBST and treated with TBST containing 5% (w/v) skimmed milk, followed by addition of the antibodies purified in (7) above at a concentration of 10 μg/mL and reaction at 4° C. for 16 hours. […] After washing three times with TBST, the cover slips were sealed with Mounting Medium (Vector Shield).

Experiment [4] shares this target. The experiment in a line: immunocytological staining of formalin-fixed HT-29 and LoVo cells, antibody 10 ug/mL. Here is the method:
as §1, §2

B1: human-mouse chimeric 205 antibody (antibody, human IgG1, kappa, V domains shown)
VH: QVKLQQSGPELVKPGASVKMSCKASGYTFTSYVMHWVKQKPGQGLEWIGYINPYNDGTKYNEKFKGKATLTSDKSSSTAYMELSSLTSEDSAVYYCARRKAWFAYWGQGTLVTVSA
VL: DIQMTQSPASQSASLGESVTITCLASQTIGTWLAWYQQKPGKSPQLLIYAATSLADGVPSRFSGSGSGTKFSFKISSLQAEDFVSYYCQQLYSTPLTFGGGTKLEIKR
notes: Human IgG1 / human kappa constant regions
B1: the binding result in experiment [1] was “binds”.

B2: monoclonal antibody produced from mouse-mouse hybridoma 303 (antibody, V domains shown)
VH: VQLQQPGAEFVKPGTSVKLSCKASGYNFTRYWINWVKLRPGQGLEWIGNIYPATNGINYNEKFKSKATLTVDTFSSTAYMQLSSLASEDSGLYYCARCKTMLSRCAWFPYWGQGTLVTVSA
VL: DIQMTQTTSSLSASLGDRVTINCRASQDISNYLNWYQQKPDGTVKLLIYDTSRLHSRVPSRFSGSGSGTDYSLTISNLEQEDIATYFCQQGNMLPWTFGGGTKLEIK
In the case of B2, the binding result in experiment [2] and in experiment [3] was “binds” in each case.

B3: monoclonal antibody produced from mouse-mouse hybridoma 419 (antibody, V domains shown)
VH: IQLQQSGPELVKPGASVKVSCKAFGYAFTRHNMYWVKQRHGKCLEWIGYIDPFNGGTSYNQKFKGKATLTVDKSSSTAYMHLNSLTSEDSAVYYCARVYGNYAWFAYWGQGTLVTVSA
VL: DIVMTQSHKFMSTSVGDRVSITCKASQDVSTAVAWYQQIPGQSPKLLIYSSSYRYTGVPDRFTGSGSGTDFTFTISSVQAEDLAVYYCQQHYNTPWTFGGGTKLEIK
With B3, the binding result in experiment [2] and in experiment [3] was “binds” in each case.

B4: monoclonal antibody produced from mouse-mouse hybridoma 205 (antibody, V domains shown)
VH: VKLQQSGPELVKPGASVKMSCKASGYTFTSYVMHWVKQKPGQGLEWIGYINPYNDGTKYNEKFKGKATLTSDKSSSTAYMELSSLTSEDSAVYYCARRKAWFAYWGQGTLVTVSA
VL: DIQMTQSPASQSASLGESVTITCLASQTIGTWLAWYQQKPGKSPQLLIYAATSLADGVPSRFSGSGSGTKFSFKISSLQAEDFVSYYCQQLYSTPLTFGGGTKLEIK
With B4, the binding result in experiment [2] and in experiment [3] was “binds” each time.

B5: monoclonal antibody produced from mouse-mouse hybridoma 422 (antibody, V domains shown)
VH: VQLQQSGPEVVKPGPSLRMSCKASGYFFTGNSMNWVKKTHGRSLEWIGLIDLSNGETRFNQKFKGKATLTVDKSSGTAYMELLNLTSEDSAVYYCASRSAMIMPCFSHWGQGTLVTVSA
VL: DIVMTQSHNFMSTSIGDRVNITCKASQDVATAVAWFQQKPGQSPKLLIYWTSTRHTGVPDRFTGSGYGTDFTLTISHVQSEDLADYFCQQYDTYPYTFGGGTKLEIK
notes: also called 422 antibody; antibody clone 422
On to B5, for which the binding result in experiment [4] and in experiment [2] was “binds” throughout.
